# According to patent publication US12441790B2, “Binding proteins to the human thrombin receptor, PAR4” (MONASH UNIVERSITY, priority 2017, dated 2025):
# B1: 5A.RC3: anti-PAR4 monoclonal antibody, IgG2a/K, VH SEQ ID NO:11 and VL SEQ ID NO:12 (antibody, V domains shown)
# VH: QVQLVESGGGVVQPGRSLRLSCAASGFTLSNYGMHWVRQAPGKGLEWVSVIWYDGSNKHYADSVKGRFTISRDNSKNTLYLQMNSLRAEDTAVYYCARESIVEVLPPFDYWGQGTLVTVSS
# VL: KIVLTQSPGTLSLSPGERVTLSCRASQRVRNNYLAWFQQKPGQAPRLFIYGASSRATGIPDRFSGSGSGTDFIFTISRLEPEDFAVYYCQQYGNSYTFGQGTKLEIK
# modifications: VH of 5A.RC3; VL of 5A.RC3
# System: hPAR4 peptides 1-9, 8-15 and 11-20
# Assay: Epitope mapping ELISA with overlapping hPAR4 peptides
# Type: binding, human
# Settings: peptides coated at 10 ug/ml
# Procedure: Briefly the peptides were coated onto a Nunc maxisorp ELISA plate at 10 ug/ml overnight in coating buffer (0.1M sodium carbonate pH8.0). Purified mAbs diluted in PBS were used in place of supernatant.
molecule,measurement,value
B1,hPAR4 peptide the mAb reacted with,amino acid residues 8-15
